Laboratory results published in patent publication US20230365712A1.

Molecular target: Notch4^GFP expressed in transfected Jurkat cells

Work on Jagged1 (ligand) yielded a Notch4-GFP positive cells (%), Jagged1 without mAb of 53.5%.
